Reference: patent publication US20200264182A1 (J OIL MILLS, published 2020)
Blank lines part the entries; values can stand above or below the binder they belong to. Where no end group is shown, it is not given here.

B3: fucosylated PSA (prostate specific antigen) (enzyme)
chain: not shown
modifications: N-linked sugar chain with α1→6 fucose (site not stated)
notes: also called serum fucosylated PSA

Assays:
[1] = target: B3; experiment: sandwich ELISA: PSA captured on anti-PSA antibody, biotin-lectin detected with HRP-streptavidin
[2] = target: B3; experiment: sandwich ELISA on serum, biotin-labeled PhoSL peptide, pH 9.6
[3] = target: T1, Aleuria aurantia lectin (AAL), biotin-labeled (Aleuria aurantia, UniProt P18891 2-313, biotin label (sites not given)); experiment: sandwich ELISA on serum, biotin-labeled AAL, pH 7.4
T1 construct: Bought reagent, used as the comparative lectin
T1 sequence (looked up): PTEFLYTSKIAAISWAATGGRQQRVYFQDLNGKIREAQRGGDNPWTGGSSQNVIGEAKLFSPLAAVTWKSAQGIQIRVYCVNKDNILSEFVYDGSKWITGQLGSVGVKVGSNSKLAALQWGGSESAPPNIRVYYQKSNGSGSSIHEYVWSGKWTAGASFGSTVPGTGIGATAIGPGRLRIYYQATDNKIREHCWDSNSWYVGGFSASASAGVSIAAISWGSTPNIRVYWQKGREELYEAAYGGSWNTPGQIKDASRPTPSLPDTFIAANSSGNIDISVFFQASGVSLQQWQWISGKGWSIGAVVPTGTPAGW

binding result [1]: binds
B1: Pholiota squarrosa lectin (PhoSL), biotin-labeled (other)
chain: APVPVTKLVCDGDTYKCTAYLDFGDGRWVAQWDTNVFHTG
modifications: cysteine pairing not given here; also: biotin label, site not given here
notes: Lectin; also called biotin-labeled PhoSL; fucose α1→6 specific lectin

binding result [2]: binds
B2: Pholiota squarrosa lectin peptide (PhoSL peptide), biotin-labeled (peptide)
peptide: KPVPVTKLVCDGDTYKCTAKLDFGDGRWVAQWDTNVFHK
modifications: cysteine pairing not given here; also: biotin label, sites not given here

Binder: B3
binding result [3]: binds
